Among the data in publication PMC10098051 are Kd values, retold here.

For the test, the target named is PeSy1‐His recombinant protein (Saccharothrix yanglingensis Hhs.015). Nature of the test: MST; PeSy1‐His labelled with protein labelling kit RED, in PBST (PBS with 0.05% Tween 20); serially diluted RSy1‐GST in 16 standard treated capillaries; Monolith NT.115, excitation power 40%, MST power medium; GST as reference control; three biological repeats.

On to “RSy1‐GST recombinant protein (natural protein)”, for which the Kd came out at 8.77 µM.

A word on the Kd: it is the constant that tells how readily two partners part at equilibrium.
